According to IntAct's records for PubMed 15143060:

Molecular target: gga1_human GGA1 (UniProt Q9UJY5)
Sequence (Q9UJY5 whole entry): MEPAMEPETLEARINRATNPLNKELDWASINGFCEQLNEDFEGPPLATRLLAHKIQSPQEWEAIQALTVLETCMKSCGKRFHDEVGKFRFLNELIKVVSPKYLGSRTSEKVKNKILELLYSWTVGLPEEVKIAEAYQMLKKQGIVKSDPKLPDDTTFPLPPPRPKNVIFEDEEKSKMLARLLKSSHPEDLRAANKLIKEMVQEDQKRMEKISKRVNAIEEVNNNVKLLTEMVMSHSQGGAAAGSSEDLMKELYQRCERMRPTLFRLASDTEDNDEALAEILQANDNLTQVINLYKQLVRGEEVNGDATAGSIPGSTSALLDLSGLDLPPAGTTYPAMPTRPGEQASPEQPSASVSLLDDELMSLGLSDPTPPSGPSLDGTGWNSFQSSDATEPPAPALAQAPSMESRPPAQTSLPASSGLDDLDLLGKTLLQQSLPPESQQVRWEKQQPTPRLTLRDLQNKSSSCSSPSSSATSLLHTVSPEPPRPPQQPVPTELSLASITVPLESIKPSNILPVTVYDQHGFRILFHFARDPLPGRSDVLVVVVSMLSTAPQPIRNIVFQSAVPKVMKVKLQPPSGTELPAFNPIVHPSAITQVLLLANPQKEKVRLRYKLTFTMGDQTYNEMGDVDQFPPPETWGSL

Substance: ADP-ribosylation factor 1 (Homo sapiens), P84077 T32N
- effect of a mutation on the interaction: decreasing interaction
